Among the data in patent US20150299277A1, “AGENT FOR TREATING OR PREVENTING SYSTEMIC INFLAMMATORY RESPONSE SYNDROME” (THE UNIVERSITY OF TOKYO, priority 2012, published 2015) are aggregation stoichiometry (protein left after removal of the aggregate, SYPRO Ruby) (mol histone H4 per mol N-terminal domain) values, retold here.

For this test, the target named is recombinant human histone H4 (human) (UniProt P62805). As to the kind of experiment: cell-based or functional assay.

For “Escherichia coli-expressed His-tagged N-terminal domain human PTX3 (18-178 amino acids), wild-type (from UniProt P26022 18-178)”, the aggregation stoichiometry (protein left after removal of the aggregate, SYPRO Ruby) (mol histone H4 per mol N-terminal domain) amounted to 2.
